Source: the supplement of paper PMC12042874
± gives the uncertainty stated by the source.

assay: amyloid nucleation score (Sup35N fusion, yeast selection) (log enrichment); library NNK2; higher = more nucleation; inactive = no reads after selection
Summary of the method: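 Peptides of 20 random codons, each fused to Sup35N, were expressed in psi-negative yeast. Cells were induced with 100 μM copper sulfate for 24 hours and grown 7 days at 30°C on medium lacking adenine and uracil, and plasmid inserts before and after selection were Illumina-sequenced. Nucleation scores are DiMSum log enrichments of output over input reads, centred on the mode score of non-aggregating sequences, and sequences under 100 input reads were excluded.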

In order of rising amyloid nucleation score:
1. LYIMDLFSTAWFDMLYVKGR  -1.45 ± 0.78
2. FARLGLSSQHRRLIVC  -1.31 ± 0.54
3. GNESDVSTIYKGDIPLLGVL  -1.05 ± 0.55
4. LGLNLTRDYLMLGKRLKCCR  -0.993 ± 0.78
5. TTGRKFMMIVTGGCGESGRF  -0.77 ± 0.42
6. MNIFKYFQSSSETMLTLKCT  -0.724 ± 1
7. TRFTYCFVVRNLVTRNRPIS  -0.646 ± 0.22
8. THFSPMGY  -0.586 ± 1.1
9. GIHLVFGFMEWRVMSTLKVS  -0.584 ± 0.64
10. SILGGVKSLRNIKLFSVWLA  -0.569 ± 0.79
11. DEGKA  -0.507 ± 0.42
12. NSLANDTQIRKNCLSIV  -0.474 ± 1.1
13. SRTRCDIWFNLRTFMVRVRK  -0.46 ± 1.1
14. KNLMCQARNYSLIGALWSVS  -0.451 ± 0.76
15. GFSLVW  -0.413 ± 0.41
16. SFFPS  -0.301 ± 0.45
17. LQVLSFSLWFMVRCMKLLPT  -0.286 ± 0.65
18. WRVFSYYHISDRF  -0.19 ± 1.1
19. DARFLPVVLRKKTDSICYVN  -0.177 ± 0.79
20. SFIVRRFSSCLHLFGDSEGY  -0.098 ± 0.41
21. SFWLTMMCNVGTMALVLSNL  -0.065 ± 0.31
22. VVDCKGVLLAFSNRIFGWTT  -0.064 ± 0.76
23. GEIAPGWEQLWDNEWGSDWA  -0.051 ± 0.39
24. RSDVFIGTSIFGALSCV  -0.025 ± 0.45
25. CWDCKLPHRPGVFMRNNHFK  -0.015 ± 0.45
26. YVEFCFLTCSASGLAWSLRW  0.053 ± 0.31
27. LHWKWQMNCLWSEGSHCFNN  0.116 ± 0.33
28. YNGMAHGCHVGASSRRLE  0.117 ± 0.32
29. LYCRTPFCTMTLELMKMTL  0.128 ± 0.24
30. ELLIHDEYDILMCN  0.136 ± 0.36
31. LDNWEL  0.145 ± 0.16
32. HTKMYRAAARMVGAGNDFDM  0.146 ± 0.46
33. NRGFFGSYGVPELQNMDQFE  0.153 ± 0.79
34. ETGCLRARAVATGVLGRREK  0.171 ± 0.65
35. TVVVWA  0.19 ± 0.31
36. VGLNYNAMAHTSRGSF  0.236 ± 0.38
37. FGKNLTRMSDGGTVVPLRRN  0.255 ± 0.8
38. SVKYFLDSVDVWIDIISAFF  0.256 ± 0.55
39. LKMKFSYDWGVDTILLCRKA  0.284 ± 1.1
40. DNELFPLYWNR  0.309 ± 0.15
41. PVCGVIALDSVTLCSSGMLL  0.334 ± 0.39
42. EWFNRSRYKCHRRHVLMAMV  0.343 ± 0.8
43. IATAKTRQGFPLMSTLPAIV  0.37 ± 0.5
44. GDCNGSLLKWWR  0.395 ± 0.55
45. KVSKTCY  0.497 ± 0.24
46. LNRVGPLVILPIRHLQSTSL  0.65 ± 0.23
47. YNRGMQLIAVVL  0.725 ± 0.39
48. LAPLDLSLVFWNTRNVLVL  0.746 ± 0.67
49. LLVML  0.851 ± 0.46
50. DMVVMVYALLGPLQFECNK  0.888 ± 0.15
51. SFLMCGHWIACALTMMVMFQ  0.896 ± 0.58
52. TLFSVCSIHEQWPGEVMVSY  0.918 ± 0.47
53. VRVDGPTLWCTQVRLSGERA  0.951 ± 0.17
54. CSWGCNDFRSCLALVMDCHA  1.02 ± 0.61
55. CMLASSFMVVRSRLLSSRAM  1.14 ± 0.32
56. VIYLVLGKTRLNIELSVLST  1.16 ± 0.45
57. CLGNVCNSFNWLDVRACVWR  1.52 ± 0.23
58. HLCPTHLNNETLRTNFWAN  1.96 ± 0.19
59. DCDMVFFLGIFFKSSGGKGN  2.57 ± 0.083
60. YSISNPYACFSNVQSFLLYN  2.65 ± 0.15
61. HCKLVFRGVMTESHSSACGG  2.82 ± 0.071
62. ILWISHLELCENVLVLDWQM  2.99 ± 0.048
63. FEIDCIKIVCKASYHGLSGT  2.99 ± 0.1
64. MSCTRDSLCLNFLVILFTTQ  3.03 ± 0.065
65. SMYSYHHSYRSDTKTSNFFW  3.4 ± 0.072
66. SNCSKCVKVYTSPCLWSLCG  3.46 ± 0.083
67. KLVIKLRIIYYASV  3.74 ± 0.084
68. GITCCSMSRRFCFRGEGTEW  3.81 ± 0.074
69. SGVKLYRLRRLCLFSRGKFA  4.09 ± 0.12
70. CTMYLALRGVW  4.56 ± 0.056
71. ILFWFRT  4.9 ± 0.043
72. DLMDVEGLSGPPLRSMQVLK  5.003 ± 0.05
73. SSFSIMLCGGVIFCIVAN  5.02 ± 0.078
74. DLAFNFASWLCRAKFNGSRC  5.04 ± 0.09
75. NLLLVFSILNSGRMTLNDNK  5.48 ± 0.094
76. FLKTKSFMVKMTGVNNQVFL  5.96 ± 0.071
77. LSIAYFSSAWCFYL  6.216 ± 0.038
78. NNVSLPYMSSIVIIGLIRR  7.193 ± 0.057
79. KTTSISLAVEGYLVGISLIP  7.26 ± 0.078
80. FCCTLAIFSL  7.594 ± 0.024
81. RQVSHVNFAVLNINYNWYRS  8.16 ± 0.084
82. HTWGAHRFCRWRNTSASDSW  8.703 ± 0.03
83. IYLYPSYWCCFNRL  9.605 ± 0.059

In the case of EICRY, the amyloid nucleation score is reported as “inactive”.
With TKLYNDIFHNW the amyloid nucleation score was “inactive”.
